Article PMC4127636 (The Biochemical journal, 2012)
Positions count from the first letter of the chain named. Names and notes keep the numbering of the source.

How the values were obtained:
Atu1476 = target: T1, Atu1476 (Agrobacterium fabrum, UniProt A9CJ11); test: esterase activity, temperature profile; assay type: biochemical; details: 50 mM potassium Hepes pH 8.0; temperature varied
T1 sequence (A9CJ11 1-277): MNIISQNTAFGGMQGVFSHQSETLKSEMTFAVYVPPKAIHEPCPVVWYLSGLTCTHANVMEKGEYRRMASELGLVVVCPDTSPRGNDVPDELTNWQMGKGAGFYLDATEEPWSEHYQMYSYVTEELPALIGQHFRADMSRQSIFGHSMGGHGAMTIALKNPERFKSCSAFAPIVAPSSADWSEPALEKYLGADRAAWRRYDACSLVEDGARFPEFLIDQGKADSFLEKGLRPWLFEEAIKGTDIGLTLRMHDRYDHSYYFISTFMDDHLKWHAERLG

BioH = target: T2, BioH (Escherichia coli, UniProt P13001); test: esterase activity, temperature profile; assay type: biochemical; details: 50 mM potassium Hepes pH 8.0; temperature varied
T2 sequence (P13001 1-256): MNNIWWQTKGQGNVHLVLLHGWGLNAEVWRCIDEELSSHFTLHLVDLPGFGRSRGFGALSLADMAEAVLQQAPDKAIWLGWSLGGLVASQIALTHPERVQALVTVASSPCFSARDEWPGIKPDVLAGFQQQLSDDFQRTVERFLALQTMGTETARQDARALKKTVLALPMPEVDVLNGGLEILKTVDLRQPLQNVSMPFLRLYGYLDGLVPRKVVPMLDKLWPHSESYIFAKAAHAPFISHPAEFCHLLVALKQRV

YeiG = target: T3, YeiG (Escherichia coli, UniProt P33018); test: esterase activity, temperature profile; assay type: biochemical; details: 50 mM potassium Hepes pH 8.0; temperature varied
T3 sequence (P33018 1-278): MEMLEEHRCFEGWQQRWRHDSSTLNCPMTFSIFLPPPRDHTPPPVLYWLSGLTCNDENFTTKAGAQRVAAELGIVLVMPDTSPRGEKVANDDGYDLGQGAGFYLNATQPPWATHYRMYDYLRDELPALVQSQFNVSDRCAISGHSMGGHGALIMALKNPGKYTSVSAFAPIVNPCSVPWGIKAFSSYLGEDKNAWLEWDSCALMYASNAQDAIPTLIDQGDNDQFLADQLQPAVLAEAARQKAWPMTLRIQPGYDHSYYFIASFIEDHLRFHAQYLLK

[1] = substrate: CCCC(=O)Oc1ccc([N+](=O)[O-])cc1; test: spectrophotometric esterase assay; assay type: biochemical, Oleispira antarctica; details: 0.4 M NaCl, 50 mM potassium Hepes pH 8.0, 20°C
[2] = substrate: CCCC(=O)Oc1cccc2ccccc12; test: spectrophotometric esterase assay; assay type: biochemical, Oleispira antarctica; details: 0.4 M NaCl, 50 mM potassium Hepes pH 8.0, 20°C
[3] = substrate: CCC(=O)Oc1ccc([N+](=O)[O-])cc1; test: spectrophotometric esterase assay; assay type: biochemical, Oleispira antarctica; details: 0.4 M NaCl, 50 mM potassium Hepes pH 8.0, 20°C
[4] = substrate: CC(=O)Oc1ccc([N+](=O)[O-])cc1; test: spectrophotometric esterase assay; assay type: biochemical, Oleispira antarctica; details: no salt, 50 mM potassium Hepes pH 8.0, 20°C
[5] = substrate: CC(=O)Oc1cccc2ccccc12; test: spectrophotometric esterase assay; assay type: biochemical, Oleispira antarctica; details: 50 mM potassium Hepes pH 8.0, 20°C
[6] = substrate: CCC(=O)Oc1cccc2ccccc12; test: spectrophotometric esterase assay; assay type: biochemical, Oleispira antarctica; details: 0.4 M NaCl, 50 mM potassium Hepes pH 8.0, 20°C

For `CCCC(=O)Oc1ccc([N+](=O)[O-])cc1` [pNP-butyrate], the “esterase activity, temperature profile” value (Atu1476) was “using α-naphthyl acetate (A), pNP-butyrate (B and D) and pNP-propionate (C) as substrates” and the “esterase activity, temperature profile” value (BioH) was “using α-naphthyl acetate (A), pNP-butyrate (B and D) and pNP-propionate (C) as substrates”.

For `CCC(=O)Oc1ccc([N+](=O)[O-])cc1` [pNP-propionate], the “esterase activity, temperature profile” value (YeiG) was “using α-naphthyl acetate (A), pNP-butyrate (B and D) and pNP-propionate (C) as substrates”.

B1: OLEI01171 (Oleispira antarctica) (protein)
chain: MSIENLSSNKSFGGWHKQYSHVSNTLNCAMRFAIYLPPQASTGAKVPVLYWLSGLTCSDENFMQKAGAQRLAAELGIAIVAPDTSPRGEGVADDEGYDLGQGAGFYVNATQAPWNRHYQMYDYVVNELPELIESMFPVSDKRAIAGHSMGGHGALTIALRNPERYQSVSAFSPINNPVNCPWGQKAFTAYLGKDTDTWREYDASLLMRAAKQYVPALVDQGEADNFLAEQLKPEVLEAAASSNNYPLELRSHEGYDHSYYFIASFIEDHLRFHSNYLNA
B1 was tested, and the Km [1] was 0.9 ± 0.3 mM, the kcat [1] was 0.2 ± 0.03 s⁻¹ and the kcat/Km [1] was 200 M⁻¹ s⁻¹. It also gave a Km [2] of 0.20 ± 0.04 mM, a kcat [2] of 0.06 ± 0.01 s⁻¹ and a kcat/Km [2] of 300 M⁻¹ s⁻¹. It also gave a Km [3] of 0.7 ± 0.2 mM, a kcat [3] of 0.3 ± 0.03 s⁻¹ and a kcat/Km [3] of 400 M⁻¹ s⁻¹. It also gave a Km [4] of 0.7 ± 0.1 mM, a kcat [4] of 0.2 ± 0.03 s⁻¹ and a kcat/Km [4] of 300 M⁻¹ s⁻¹. The Km ([5]; no salt) was 0.40 ± 0.03 mM, the kcat ([5]; no salt) was 0.8 ± 0.02 s⁻¹ and the kcat/Km ([5]; no salt) was 2000 M⁻¹ s⁻¹. It also gave a Km [6] of 0.20 ± 0.03 mM, a kcat [6] of 1.5 ± 0.1 s⁻¹ and a kcat/Km [6] of 8000 M⁻¹ s⁻¹.

B2: OLEI01171 (Oleispira antarctica; A224K) (protein)
chain: B1 chain with A223K
For B2, the Km ([5]; 0.4 M NaCl) was 0.30 ± 0.04 mM, the kcat ([5]; 0.4 M NaCl) was 1.1 ± 0.1 s⁻¹ and the kcat/Km ([5]; 0.4 M NaCl) was 4000 M⁻¹ s⁻¹.

B3: OLEI01171 (Oleispira antarctica; Y98A) (protein)
chain: B1 chain with Y97A
In the case of B3, the Km ([5]; 0.4 M NaCl) is reported as 1.7 ± 0.3 mM, the kcat ([5]; 0.4 M NaCl) is reported as 2.9 ± 0.3 s⁻¹ and the kcat/Km ([5]; 0.4 M NaCl) is reported as 2000 M⁻¹ s⁻¹.

B4: OLEI01171 (Oleispira antarctica; N62A) (protein)
chain: B1 chain with N61A
B4 showed a Km ([5]; 0.4 M NaCl) of 0.5 ± 0.1 mM, a kcat ([5]; 0.4 M NaCl) of 1.8 ± 0.2 s⁻¹ and a kcat/Km ([5]; 0.4 M NaCl) of 4000 M⁻¹ s⁻¹.

B5: OLEI01171 (Oleispira antarctica; N226A) (protein)
chain: B1 chain with N225A
With B5 the Km ([5]; 0.4 M NaCl) was 0.5 ± 0.1 mM, the kcat ([5]; 0.4 M NaCl) was 1.7 ± 0.1 s⁻¹ and the kcat/Km ([5]; 0.4 M NaCl) was 3000 M⁻¹ s⁻¹.

B6: OLEI01171 (Oleispira antarctica; N226K) (protein)
chain: B1 chain with N225K
For B6, the Km ([5]; 0.4 M NaCl) was 0.4 ± 0.1 mM, the kcat ([5]; 0.4 M NaCl) was 3 ± 0.2 s⁻¹ and the kcat/Km ([5]; 0.4 M NaCl) was 8000 M⁻¹ s⁻¹.

B7: OLEI01171 (Oleispira antarctica; C58A) (protein)
chain: B1 chain with C57A
B7 was tested, and the Km ([5]; 0.4 M NaCl) was 0.20 ± 0.01 mM, the kcat ([5]; 0.4 M NaCl) was 0.9 ± 0.02 s⁻¹ and the kcat/Km ([5]; 0.4 M NaCl) was 5000 M⁻¹ s⁻¹.

B8: OLEI01171 (Oleispira antarctica; S59A) (protein)
chain: B1 chain with S58A
Work on B8 yielded a Km ([5]; 0.4 M NaCl) of 0.40 ± 0.01 mM, a kcat ([5]; 0.4 M NaCl) of 0.8 ± 0.1 s⁻¹ and a kcat/Km ([5]; 0.4 M NaCl) of 2000 M⁻¹ s⁻¹.

B9: OLEI01171 (Oleispira antarctica; K66A) (protein)
chain: B1 chain with K65A
Work on B9 yielded a Km ([5]; 0.4 M NaCl) of 0.40 ± 0.01 mM, a kcat ([5]; 0.4 M NaCl) of 1.2 ± 0.1 s⁻¹ and a kcat/Km ([5]; 0.4 M NaCl) of 3000 M⁻¹ s⁻¹.

B10: OLEI01171 (Oleispira antarctica; S173A) (protein)
chain: B1 chain with S172A
With B10 the Km ([5]; 0.4 M NaCl) was 0.6 ± 0.1 mM, the kcat ([5]; 0.4 M NaCl) was 5.3 ± 0.3 s⁻¹ and the kcat/Km ([5]; 0.4 M NaCl) was 9000 M⁻¹ s⁻¹.
